{"source": "patent US7387779B2", "about": "“Anti-angiogenic proteins and fragments and methods of use thereof” (Beth Israel Deaconess Medical Center, priority 1998, dated 2008)", "key": {"Caspase-3 in C-PAE cells": {"system": "Caspase-3 in C-PAE cells", "assay": "Caspase-3 assay", "assay_type": "cell-based, bovine", "settings": "for effect on Caspase-3 activity: 5 μg/ml", "experimental": "Tumstatin also altered cell morphology of C-PAE cells as monitored by phase contrast microscopy. After treating cells with 20 μg/ml of Tumstatin in the presence of 10% FCS for 24 hours on fibronectin-coated plates, the typical morphological features of apoptotic cells, membrane blebbing, cytoplasmic shrinkage, and chromatin condensation could be observed. […] Caspase-3 assay: Caspase-3 (CPP32) is an intracellular protease activated at the early stage of apoptosis, and initiates cellular breakdown by degrading structural and DNA repair proteins (Casciola-Rosen, L. et al., 1996, J. Exp. Med. 183:1957-64; Salvesen, G. S. et al., 1997, Cell 91:443-46). The protease activity of Caspase-3 was measured spectrophotometrically by detection of the chromophore (p-nitroanilide) cleaved from the labeled substrate (DEVD-pNA). C-PAE cells or PC-3 cells (0.5×10^6 per well) were plated onto a 6-well plate precoated with fibronectin (10 μg/ml) in DMEM supplemented with 10% FCS, and incubated overnight. The next day, the medium was replaced with DMEM containing 2% FCS and then incubated overnight at 37° C. Then cells were then stimulated with bFGF (3 ng/ml) in DMEM supplemented with 2% FCS, and also containing either TNF-α (80 ng/ml, positive control) or Tumstatin (10 μg/ml), and incubated for 24 hours. Controls received PBS buffer. After 24 hours, the supernatant cells were collected, and attached cells were trypsinized and combined with the supernatant cells. Cells were counted and resuspended in cell lysis buffer (Clontech) at a concentration of 4×10^7 cells/ml. The rest of the protocol followed the manufacturer's instructions (Clontech). A specific inhibitor of Caspase-3, DEVD-fmk (Asp-Glu-Val-Asp-fluoromethyl ketone) was used to confirm the specificity of the assay. The absorbance was measured in a microplate reader (Bio-Rad, Hercules, Calif., USA) at 405 nm. The assay was repeated three times for each cell type.\nApoptosis was also evaluated by measuring Caspase-3 activity as described in Example 27, above. The results are shown in FIG. 35, which is a histogram showing Caspase-3 activity as a measure of absorbance at OD405 (y-axis) of C-PAE cells treated (x-axis) with 5 μg/ml Tum-1, Tum-2, Tum-3 or Tum-4, or 80 ng/ml TNF-α or PBS buffer (control).\nCaspase-3 activity was also assayed as described above. DEVD-fmk, a specific caspase-3 inhibitor, was used as an internal control to show specificity of Tumstatin-44-131. TNF-α (80 ng/ml) was used as a positive control. The experiments were repeated three times.\nThe protease activity of Caspase-3 in cells treated with T3 peptide was measured spectrophotometrically by detection of the chromophore (p-nitroanilide) cleaved from the labeled substrate (DEVD-pNA). […] In PC-3 nonendothelial cells, there was no difference in Caspase-3 activity between control treatments and T3 peptide-treated cells."}, "PC-3 tumors": {"system": "PC-3 tumors", "assay": "PC-3 xenograft in athymic nude NCRNU mice (Example 46)", "assay_type": "in vivo", "experimental": "Tumstatin-44-131 was also tested for its ability to suppress tumor growth. Male athymic nude NCRNU mice, of 5-6 weeks of age and about 25 g, were implanted with […] approximately 2×10^6 PC-3 (prostate cancer carcinoma) cells into the dorsal subcutis. […] The tumors were allowed to grow to about 50 mm^3, and animals were then pair-matched into groups of 6 mice. Initial doses of protein or vehicle (PBS, control) were given on the day of pair-matching (Day 1). Tumstatin-44-131, Tum-5-125-C-A, or human endostatin in sterile PBS was intraperitoneally injected daily b.i.d. at doses ranging from 1 to 20 mg/kg for 20 days. Control animals received injection of PBS vehicle. In one treatment, continuous subcutaneous delivery of Tumstatin-44-131 was done using surgically implanted Alzet mini-pumps. The mice were weighed twice weekly, and tumor measurements were taken, starting on Day 1. Estimated mean tumor volumes were calculated, and at Day 21, the mice were weighed, sacrificed, and their tumors excised and examined by light microscopy and CD31 immunostaining. The mean treated tumor weight was divided by the mean control tumor weight was subtracted from one, and expressed as a percentage to give the tumor growth inhibition for each group."}, "PC-3 cells": {"system": "PC-3 cells", "assay": "Annexin V-FITC apoptosis assay", "assay_type": "cell-based, human", "experimental": "Annexin V-FITC Labeling. In order to establish apoptosis as the potential mode of action for Canstatin, Annexin V-FITC was used to label externalized phosphatidylserine (PS), to assess apoptotic cells. 0.5×10^6 C-PAE cells, PC-3, 786-O and HEK 293 cells were added to each well of a 6 well tissue culture plate in 10% FBS supplemented DMEM (BioWhittaker, Walkersville, Md., USA) overnight. The next day, fresh medium was added to all wells together with 40 ng/ml TNF-α (positive control) or 15 μg/ml Canstatin. Control cells received an equal volume of PBS. After 24 hours of treatment, medium containing detached cells was collected and attached cells were trypsinized and combined with detached cells and centrifuged at 3,000×g. Cells were then washed and phosphatidyl-serine externalization (an early apoptotic indicator) was measured by labeling with FITC-labeled annexin V (Clontech, Palo Alto, Calif., USA) according to the manufacturer's instructions. Annexin V-FITC-labeled cells were counted using a FAC Star Plus flow cytometer (Becton-Dickenson, Waltham, Mass., USA). For each treatment 15,000 cells were counted and stored in listmode. […] Annexin V-FITC labeled cells were counted using a FACStar Plus flow cytometer (Becton-Dickinson, Waltham, Mass., USA). For each treatment, 15,000 cells were counted and stored in listmode."}}, "data": [{"molecule": "LQRFTTMPFLFCNVNDVCNF [T3]", "values": [{"measurement": "fold increase in Caspase-3 activity", "setting": "Caspase-3 in C-PAE cells; 50 μg/ml T3 peptide, TNF-α 80 ng/ml", "value": 3.6, "unit": "fold"}, {"measurement": "fold increase in Caspase-3 activity", "setting": "Caspase-3 in C-PAE cells; T3 peptide at 10 mg/ml (so in the source)", "value": 1.6, "unit": "fold"}]}, {"molecule": "Tumstatin-44-131: residues 44 to 131 of full-length Tumstatin (SEQ ID NO:33) (protein, Tumstatin-45-132 (amino acids 45-132 of SEQ ID NO10)) FSFLFVQGNQRAHGQDLGTLGSCLQRFTTMPFLFCNVNDVCNFASRNDYSYWLSTPALMPMNMAPITGRALEPYISRCTVCEGPAIAI", "values": [{"measurement": "fold increase in Caspase-3 activity", "setting": "Caspase-3 in C-PAE cells; 10 μg/ml E. Coli-expressed Tumstatin-44-131, TNF-α 80 ng/ml", "value": 4.5, "unit": "fold"}, {"measurement": "tumor growth inhibition", "setting": "PC-3 tumors; 1 mg/kg i.p. b.i.d., 20 days", "value": 74.1, "unit": "%"}, {"measurement": "tumor growth inhibition", "setting": "PC-3 tumors; continuous delivery via Alzet mini-pump, 1 mg/kg over 24 hours", "value": 70.1, "unit": "%"}]}, {"molecule": "Canstatin: NC1 domain of the α2 chain of Type IV collagen (SEQ ID NO:6) (protein, listed as Homo sapiens) VSIGYLLVKHSQTDQEPMCPVGMNKLWSGYSLLYFEGQEKAHNQDLGLAGSCLARFSTMPFLYCNPGDVCYYASRNDKSYWLSTTAPLPMMPVAEDEIKPYISRCSVCEAPAIAIAVHSQDVSIPHCPAGWRSLWIGYSFLMHTAAGDEGGGQSLVSPGSCLEDFRATPFIECNGGRGTCHYYANKYSFWLTTIPEQSFQGSPSADTLKAGLIRTHISRCQVCMKNL", "values": [{"measurement": "apoptosis of PC-3 cells", "setting": "PC-3 cells", "value": "no significant effect"}]}, {"molecule": "Tum-2: residues 1 to 132 of Tumstatin (SEQ ID NO:23) (protein, Tum-2 (amino acids 1-132 of SEQ ID NO10)) GLKGKRGDSGSPATWTTRGFVFTRHSQTTAIPSCPEGTVPLYSGFSFLFVQGNQRAHGQDLGTLGSCLQRFTTMPFLFCNVNDVCNFASRNDYSYWLSTPALMPMNMAPITGRALEPYISRCTVCEGPAIAI", "values": [{"measurement": "effect on Caspase-3 activity", "setting": "Caspase-3 in C-PAE cells", "value": "increased"}]}, {"molecule": "Tumstatin: NC1 domain of the α3 chain of type IV collagen, residues 1-244 (SEQ ID NO:10) (protein, listed as Homo sapiens) GLKGKRGDSGSPATWTTRGFVFTRHSQTTAIPSCPEGTVPLYSGFSFLFVQGNQRAHGQDLGTLGSCLQRFTTMPFLFCNVNDVCNFASRNDYSYWLSTPALMPMNMAPITGRALEPYISRCTVCEGPAIAIAVHSQTTDIPPCPHGWISLWKGFSFIMFTSAGSEGTGQALASPGSCLEEFRASPFLECHGRGTCNYYSNSYSFWLASLNPERMFRKPIPSTVKAGELEKIISRCQVCMKKRH", "values": [{"measurement": "apoptosis of PC-3 cells", "setting": "PC-3 cells", "value": "not observed"}]}, {"molecule": "Tum-1: residues 54 to 244 of Tumstatin, lacking the N-terminal 53 amino acids (SEQ ID NO:22) (protein, Tum-1 (Tumstatin N-53) (amino acids 54-244 of SEQ ID NO10)) QRAHGQDLGTLGSCLQRFTTMPFLFCNVNDVCNFASRNDYSYWLSTPALMPMNMAPITGRALEPYISRCTVCEGPAIAIAVHSQTTDIPPCPHGWISLWKGFSFIMFTSAGSEGTGQALASPGSCLEEFRASPFLECHGRGTCNYYSNSYSFWLASLNPERMFRKPIPSTVKAGELEKIISRCQVCMKKRH", "values": [{"measurement": "effect on Caspase-3 activity", "setting": "Caspase-3 in C-PAE cells", "value": "increased"}]}, {"molecule": "endostatin: tumor associated angiogenesis inhibitor used as comparator (protein, UniProt P39060 1572-1754, looked up, Endostatin) Endostatin: HSHRDFQPVLHLVALNSPLSGGMRGIRGADFQCFQQARAVGLAGTFRAFLSSRLQDLYSIVRRADRAAVPIVNLKDELLFPSWEALFSGSEGPLKPGARIFSFDGKDVLRHPTWPQKSVWHGSDPNGRRLTESYCETWRTEAPSATGQASSLLGGRLLGQSAASCHHAYIVLCIENSFMTASK", "values": [{"measurement": "tumor growth inhibition", "setting": "PC-3 tumors; 20 mg/kg b.i.d., bolus injection", "value": "no significant tumor growth inhibition"}]}, {"molecule": "Tum-4: residues 181 to 244 of Tumstatin (SEQ ID NO:25) (protein, Tum-4 (amino acids 181-244 of SEQ ID NO10)) EFRASPFLECHGRGTCNYYSNSYSFWLASLNPERMFRKPIPSTVKAGELEKIISRCQVCMKKRH", "values": [{"measurement": "effect on Caspase-3 activity", "setting": "Caspase-3 in C-PAE cells", "value": "did not"}]}]}
